Series [1] addresses T1, XtrLin28b CSD (Xenopus tropicalis, UniProt B4F6I0 27-114).
T1 sequence: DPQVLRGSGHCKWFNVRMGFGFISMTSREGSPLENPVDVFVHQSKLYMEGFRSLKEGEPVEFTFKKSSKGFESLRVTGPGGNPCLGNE
Briefly: crystal structure.

The next series concerns the target T2, XtrLin28b ZKD (Xenopus tropicalis, UniProt B4F6I0 125-175).
T2 sequence: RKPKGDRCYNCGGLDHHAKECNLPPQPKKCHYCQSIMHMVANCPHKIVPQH
Briefly: ITC.

The target of a further series is T3, XtrLin28b ZKD Y133A (Xenopus tropicalis, UniProt B4F6I0 125-175, Y133A).
T3 sequence: T2 sequence with Y9A
As to the kind of experiment: ITC.

The target of another series is T4, XtrLin28b ZKD H155A (Xenopus tropicalis, UniProt B4F6I0 125-175, H155A).
T4 sequence: T2 sequence with H31A
As to the kind of experiment: ITC.

The next series has as its target T5, XtrLin28b CSD W39A (Xenopus tropicalis, UniProt B4F6I0 27-114, W39A).
T5 sequence: T1 sequence with W13A
Briefly: ITC.

The target in series [2] is T1, XtrLin28b CSD. Briefly: ITC.
A further series deals with T6, XtrLin28b CSD F77A (Xenopus tropicalis, UniProt B4F6I0 27-114, F77A).
T6 sequence: T1 sequence with F51A
As to the kind of experiment: ITC.

Another series has as its target T7, XtrLin28b CSD H68A (Xenopus tropicalis, UniProt B4F6I0 27-114, H68A).
T7 sequence: T1 sequence with H42A
As to the kind of experiment: ITC.

A further series has as its target T8, XtrLin28b CSD F48A (Xenopus tropicalis, UniProt B4F6I0 27-114, F48A).
T8 sequence: T1 sequence with F22A
Briefly: ITC.

In the next series the target is T9, XtrLin28b CSD F66A (Xenopus tropicalis, UniProt B4F6I0 27-114, F66A).
T9 sequence: T1 sequence with F40A
Briefly: ITC.

Where a chain is given by its changes, count along the chain named.

B1: rU6 (ssRNA)
RNA: UUUUUU
On to B1, for which the binding result with XtrLin28b CSD [1] was “binds”.

B2: rZ1 (ssRNA)
RNA: AAGGAGAA
Turning to B2, the Kd in the series with XtrLin28b ZKD turned out to be 45 ± 4 nM; with XtrLin28b ZKD Y133A, 2200 ± 700 nM; with XtrLin28b ZKD H155A it was 2600 ± 600 nM.

B3: rlet-7f5 (ssRNA)
RNA: GUCACACC
B3: the Kd in the series with XtrLin28b CSD W39A was 1130 ± 110 nM; in the series with XtrLin28b CSD [2], 18 ± 2 nM; with XtrLin28b CSD F77A, 1180 ± 60 nM; with XtrLin28b CSD H68A, 540 ± 50 nM; with XtrLin28b CSD F48A, 1610 ± 340 nM; in the series with XtrLin28b CSD F66A it was 1440 ± 200 nM.

For the origin of these results see publication PMC3424542.
